1 substance from patent US20090175784A1 can be followed below.

The target in experiment [1] is human αVβ3/5 integrins on human tumor cells (A375.S2, MDA-MB-231, A2780, HT29, A549) (human) (UniProt P06756). The experiment in a line: cell-based or functional assay. Further details: IC50 of doxorubicin, integrin targeted liposome-entrapped dox 90:1, murine melanoma B16-F10 cells (negative control): unit not given beside the values.
The target in experiment [2] is murine αVβ3/5 integrin (murine melanoma cell line B16F10, negative control) (murine) (UniProt P43406). The experiment in a line: cell-based or functional assay. Further details: IC50 of doxorubicin, integrin targeted liposome-entrapped dox 90:1, murine melanoma B16-F10 cells (negative control): unit not given beside the values.
Chain of murine αVβ3/5 integrin (murine melanoma cell line B16F10, negative control) (murine) (P43406 31-1044, form in doubt, chain 1 of 3): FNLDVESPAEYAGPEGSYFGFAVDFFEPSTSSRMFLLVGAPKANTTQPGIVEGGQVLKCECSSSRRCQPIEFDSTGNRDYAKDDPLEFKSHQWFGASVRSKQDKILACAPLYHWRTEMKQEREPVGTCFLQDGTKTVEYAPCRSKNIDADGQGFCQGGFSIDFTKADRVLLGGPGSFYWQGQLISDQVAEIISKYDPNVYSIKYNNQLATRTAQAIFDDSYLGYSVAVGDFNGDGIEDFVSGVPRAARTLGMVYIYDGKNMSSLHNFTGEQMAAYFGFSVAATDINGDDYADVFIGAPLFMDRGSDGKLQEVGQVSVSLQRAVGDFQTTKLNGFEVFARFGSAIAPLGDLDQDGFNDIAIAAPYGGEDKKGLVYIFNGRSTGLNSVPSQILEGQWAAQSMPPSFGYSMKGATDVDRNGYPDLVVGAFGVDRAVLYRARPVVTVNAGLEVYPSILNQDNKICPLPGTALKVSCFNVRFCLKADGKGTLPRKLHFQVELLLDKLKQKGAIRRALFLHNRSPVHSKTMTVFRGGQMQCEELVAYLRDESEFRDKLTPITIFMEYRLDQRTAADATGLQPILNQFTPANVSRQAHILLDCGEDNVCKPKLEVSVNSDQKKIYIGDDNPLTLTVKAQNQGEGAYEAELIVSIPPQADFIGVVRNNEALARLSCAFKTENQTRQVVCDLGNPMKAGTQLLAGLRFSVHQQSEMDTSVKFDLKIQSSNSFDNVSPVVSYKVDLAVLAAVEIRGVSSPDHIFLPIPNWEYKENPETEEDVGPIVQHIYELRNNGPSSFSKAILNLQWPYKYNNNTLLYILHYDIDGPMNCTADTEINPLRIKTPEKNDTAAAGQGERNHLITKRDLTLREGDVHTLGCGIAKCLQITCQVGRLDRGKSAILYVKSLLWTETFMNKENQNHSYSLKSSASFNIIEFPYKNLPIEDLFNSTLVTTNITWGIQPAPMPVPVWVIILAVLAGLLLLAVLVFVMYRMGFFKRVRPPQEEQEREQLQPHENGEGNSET
Chain of murine αVβ3/5 integrin (murine melanoma cell line B16F10, negative control) (murine) (O54890 26-787, form in doubt, chain 2 of 3, further chain): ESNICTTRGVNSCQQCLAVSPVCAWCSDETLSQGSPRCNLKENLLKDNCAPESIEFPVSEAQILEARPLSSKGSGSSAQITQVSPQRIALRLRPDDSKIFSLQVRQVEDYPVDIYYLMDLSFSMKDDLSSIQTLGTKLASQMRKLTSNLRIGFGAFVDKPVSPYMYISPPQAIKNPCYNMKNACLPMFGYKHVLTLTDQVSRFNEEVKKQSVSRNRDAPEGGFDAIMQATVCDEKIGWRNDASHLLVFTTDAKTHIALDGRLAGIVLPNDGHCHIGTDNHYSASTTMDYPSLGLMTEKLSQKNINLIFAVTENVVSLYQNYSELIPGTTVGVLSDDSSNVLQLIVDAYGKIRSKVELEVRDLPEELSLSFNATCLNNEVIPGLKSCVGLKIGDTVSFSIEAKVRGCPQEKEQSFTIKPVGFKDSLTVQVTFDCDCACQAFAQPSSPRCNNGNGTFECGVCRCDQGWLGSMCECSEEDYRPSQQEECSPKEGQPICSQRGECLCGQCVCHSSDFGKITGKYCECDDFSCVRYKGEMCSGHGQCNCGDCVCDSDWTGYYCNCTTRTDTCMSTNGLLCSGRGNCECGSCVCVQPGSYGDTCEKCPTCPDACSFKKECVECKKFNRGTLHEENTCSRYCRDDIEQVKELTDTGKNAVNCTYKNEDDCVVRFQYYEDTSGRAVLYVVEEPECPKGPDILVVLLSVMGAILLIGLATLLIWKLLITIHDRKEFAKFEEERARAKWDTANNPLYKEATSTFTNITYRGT
Chain of murine αVβ3/5 integrin (murine melanoma cell line B16F10, negative control) (murine) (O70309 24-798, form in doubt, chain 3 of 3, further chain): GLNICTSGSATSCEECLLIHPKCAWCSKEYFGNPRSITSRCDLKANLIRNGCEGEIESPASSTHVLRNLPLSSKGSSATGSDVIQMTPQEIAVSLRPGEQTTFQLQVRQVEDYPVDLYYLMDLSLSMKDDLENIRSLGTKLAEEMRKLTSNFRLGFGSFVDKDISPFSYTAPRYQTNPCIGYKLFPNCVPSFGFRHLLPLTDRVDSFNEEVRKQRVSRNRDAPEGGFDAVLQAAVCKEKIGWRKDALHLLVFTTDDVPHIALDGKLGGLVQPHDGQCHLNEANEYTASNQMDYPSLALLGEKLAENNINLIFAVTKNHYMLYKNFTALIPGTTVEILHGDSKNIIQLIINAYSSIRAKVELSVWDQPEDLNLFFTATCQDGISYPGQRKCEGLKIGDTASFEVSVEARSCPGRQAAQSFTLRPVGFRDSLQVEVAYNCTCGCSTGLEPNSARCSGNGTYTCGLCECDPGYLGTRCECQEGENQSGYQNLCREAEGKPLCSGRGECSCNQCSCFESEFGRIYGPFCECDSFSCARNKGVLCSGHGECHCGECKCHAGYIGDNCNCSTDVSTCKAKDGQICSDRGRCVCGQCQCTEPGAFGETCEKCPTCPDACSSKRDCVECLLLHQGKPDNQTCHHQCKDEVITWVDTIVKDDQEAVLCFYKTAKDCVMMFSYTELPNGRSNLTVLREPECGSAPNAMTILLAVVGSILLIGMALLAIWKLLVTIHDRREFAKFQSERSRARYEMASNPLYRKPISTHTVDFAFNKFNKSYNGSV

Turning to “CNTO95 Fab′ (from pepsin F(ab′)2, reduced and reoxidized) conjugated to MalPEG-DSPE on the surface of liposomes”, in experiment [1], the Increase (ratio of IC50 of liposome-entrapped dox to IC50 of integrin-targeted 90:1), breast cancer MDA-MB-231 cells came to 5 fold; the Increase (ratio of IC50 of liposome-entrapped dox to IC50 of integrin-targeted 90:1), colon cancer HT29 cells turned out to be 1.1 fold; the Increase (ratio of IC50 of liposome-entrapped dox to IC50 of integrin-targeted 90:1), lung cancer A549 cells was 1 fold; the Increase (ratio of IC50 of liposome-entrapped dox to IC50 of integrin-targeted 90:1), melanoma A375.S2 cells worked out at 29 fold. Besides, the Increase (ratio of IC50 of liposome-entrapped dox to IC50 of integrin-targeted 90:1), ovarian cancer A2780 cells in experiment [1] turned out to be 29 fold. For the same substance, in experiment [2], the IC50 of doxorubicin, integrin targeted liposome-entrapped dox 90:1, murine melanoma B16-F10 cells (negative control) is above 200 and the Increase (ratio of IC50 of liposome-entrapped dox to IC50 of integrin-targeted 90:1), murine melanoma B16-F10 cells (negative control) amounted to 1 fold.
